Experiments:
[1] = molecular target: T1, SIGNR1-hFc (extracellular region of murine SIGNR1 fused to the Fc part of human IgG1) (mouse; human, UniProt Q8CJ91 74-325; P01857 104-330 = IgG part, limits assumed); assay: flow cytometry of SlpA-coated beads with hFc fusion proteins
T1 construct: extracellular domain;domain: Fc part of human IgG1; Expressed in CHO-S cells
Protocol: (§1) FIGS. 5A-5D. L. acidophilus NCK2187 and its SlpA bind to murine SIGNR3 to induce regulatory signals. A. B6 mice were orally gavaged with 10⁹ CFU NCK56 or NCK2187 and the colonic gene expression of C-type lectin receptors were measured by RT-PCR. Each box represents an individual mouse; n=4. Data represent three individual experiments and are shown as mean±SEM. B. Binding of SlpA to various hFc fusion proteins were analyzed by flow cytometry. Gray tinted line=SlpA-coated beads only; orange=SlpA-coated beads+secondary antibody; green=SlpA-coated beads+control fusion protein; blue=SlpA-coated beads+SIGNR1-hFc; red=SlpA-coated beads+SIGNR3-hFc. Binding assays results were confirmed five independent times. C. […] production by colonic DCs of naïve WT B6 GF or Signr3^{-/-} mice treated with NCK56 (blue) or NCK2187 (green) on days 0, 3, 6, and 9, or left untreated (black), as determined by flow cytometry. D. Frequency of colonic FoxP3⁺ Tregs in KO mice treated with NCK56 or NCK2187 was measured by flow cytometry. n=5 mice/group. Data represent four individual experiments and are shown as mean±SEM. *P<0.05. […]
(§2) C-type lectin receptors, SIGNR1 and SIGNR3, were fused to the Fc part of human IgG1 (SIGNR1-hFc and SIGNR3-hFc) as previously described (Eriksson et al., 2013). […] Binding of SlpA-coated beads (Dynabeads MyOne Carboxylic Acid, Life Technologies) to fusion proteins was analyzed by flow cytometry.

hFc = molecular target: T2, hFc (human, UniProt P01857-1 104-330 = IgG part, limits assumed); assay: as above
T2 construct: domain: Fc; Fc-only control in the SlpA bead assay; also called human Fc
Protocol: as §1, §2

T1 sequence (Q8CJ91 other isoform, or with tags, fused parts or gaps limits assumed): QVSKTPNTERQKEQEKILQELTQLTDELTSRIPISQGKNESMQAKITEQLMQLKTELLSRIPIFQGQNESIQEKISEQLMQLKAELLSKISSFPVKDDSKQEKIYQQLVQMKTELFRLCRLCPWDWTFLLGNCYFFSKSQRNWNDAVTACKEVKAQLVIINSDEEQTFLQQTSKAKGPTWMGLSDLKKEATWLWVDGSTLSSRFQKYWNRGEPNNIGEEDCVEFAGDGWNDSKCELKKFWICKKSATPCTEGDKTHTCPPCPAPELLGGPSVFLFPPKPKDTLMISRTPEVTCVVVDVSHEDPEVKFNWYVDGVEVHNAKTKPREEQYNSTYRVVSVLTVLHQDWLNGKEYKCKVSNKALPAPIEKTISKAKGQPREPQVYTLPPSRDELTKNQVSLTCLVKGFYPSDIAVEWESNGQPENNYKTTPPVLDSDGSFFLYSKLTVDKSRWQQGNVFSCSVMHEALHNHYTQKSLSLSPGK

B1: Lactobacillus acidophilus surface layer protein A (SlpA), purified from strain NCK2187 (other)
chain: AVSTVSAATTINASSSAINTNTNAKYDVDVTPSVSAVAANTANNTPAIAGNLTGTISASYNGKTYTANLKADTENATITAAGSTTAVKPAELAAGVAYTVTVNDVSFNFGSENAGKTVTLGSANSNVKFTGTNSDNQTETNVSTLKVKLDQNGVASLTNVSIANVYAINTTDNSNVNFYDVTSGATVTNGAVSVNADNQGQVNVANVVAAINSKYFAAQYADKKLNTRTANTEDAIKAALKDQKIDVNSVGYFKAPHTFTVNVKATSNTNGKSATLPVVVTVPNVAEPTVASVSKRIMHNAYYYDKDAKRVGTDSVKRYNSVSVLPNTTTINGKTYYQVVENGKAVDKYINAANIDGTKRTLKHNAYVYASSKKRANKVVLKKGEVVTTYGASYTFKNGQKYYKIGDNTDKTYVKVANFR
notes: Native protein extracted from the surface of L. acidophilus NCK2187 with 5 M LiCl or 5 M NaCl (46 kDa band); In the assays it was coated on carboxylated beads or ELISA plates, blotted, or pulsed onto RAW 264.7 cells; also called L. acidophilus-SlpA; purified SlpA
[1]
  binding result: no binding
hFc
  binding result: no binding

Source: patent US20200172582A1 (UNIVERSITY OF FLORIDA RESEARCH FOUNDATION, published 2020)
